Results taken from the RNAGym collection of RNA variant scans (doi:10.1073/pnas.2313332121).

B1: TPR t1 (parent)
chain: GACCAAUCUGCCCUCAGAGCUCGAGAACAUCUUCGGAUGCAGAGGAGGCAGGCUUCGGUGGCGCGAUAGCGCCAACGUCCUCAACCUCCAAUGCAUCCCACCACAUGAUGAUGCCUGAAGAGCCUUGGUUUUUUG

Variants of: B1
Test: polymerase ribozyme fitness, log enrichment relative to wild type (log ratio); higher = more active; in vitro selection for triplet polymerase activity
Summary of the method: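 Fitness is a logarithmic measure of how a genotype enriched relative to the wild type, with replicate averages weighted by inverse variance. The logarithm uses base 2, and enrichment came from Illumina sequencing of input and output libraries. Those libraries were PCR-built, transcribed mutants of each subunit of a heterodimeric triplet polymerase ribozyme, passed through one triplicate in vitro selection round that included frozen incubation at −7 °C, gel excision of extended constructs and streptavidin-bead capture. Genotypes were kept only if they had ≥10 input reads and ≥1 read per output.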

| Variant | polymerase ribozyme fitness (log ratio) |
| --- | --- |
| U92G U106A | -1.97 |
| C8G G39U | 0.57 |
| U32C A46U | -1.51 |
| G61U G65A | -4.98 |
| A50U A83C C89G | -5.74 |
| C13G C79A C86A | -5.8 |
| G60U A84G G128A | -1.56 |
| G44A G60U A108G | -2.88 |
| A37U G77A A90U C123U | -0.717 |
| U30A U106A C124G | -2.11 |
| C80G U112A | -5.14 |
| G39C G45U G61A U112C | 0.603 |
| A43U A46U G58C G60A | -2.67 |
| U30C C49G G63U C70U A84C C114U | -6.54 |
| A18C C73A | -2.69 |
| U38G G39U U54G U87A G113C | -3.28 |
| U7G A29G C89A C115A G122A | -1.64 |
| C3A C12U C102A | -1.7 |
| C11G A18U A41U G57A A74U C114U G128C | -4.05 |
| A2G C56G C70G U112A | -3.63 |
| A83U C85U C123G C124G | 1.28 |
| C15G G52A | -2.6 |
| G10A C76U U78A C85A U125G | -1.57 |
| A43C G47U U112A G135A | -1.87 |

| Variant | polymerase ribozyme fitness (log ratio) |
| --- | --- |
| G36A A83C | -1.41 |
| U116A U130C | -2.68 |
| C12G C13U C20A C40A C56U C114U C115A | -3.7 |
| G35A C73A U78G A90G C115G A121C | -4.57 |
| G71A A83C G93C A118G | -2.9 |
| U7A G39C U55C | -1.1 |
| C73U A84G | -0.874 |
| A37U G60U G113U | -3.06 |
| A29U G60A U78C C102A U112C | -3.58 |
| G60A C89A C115U | -2.92 |
| G17C C20G G47C C72U G113A A119C | -7.02 |
| G35C G61C C79G | -6.99 |
| A18U C114A U125A U133G | -1.87 |
| U78C A95C | -1.06 |
| C53U A90C U96G A118U | -1.37 |
| C82U U134G | 0.46 |
| G51A G63U C80A U96G | -5.76 |
| G48C C53A C79G C99A C124A | -7.85 |
| U81C C115G | -2.02 |
| C12U A16G C20U A84U U112G G113U | -0.951 |
| G42A G61A | -1.27 |
| C40A C56G A105C U106G | -4.78 |
| A5C A43C G45A C56A A91G G113A | -4.37 |
| C102U G120A | -1.2 |

| Variant | polymerase ribozyme fitness (log ratio) |
| --- | --- |
| C8A U133A | 0.119 |
| A46G C72U C73G G117C | -4.79 |
| G10C C62A U78C | -1.58 |
| C34U G58A C97U C123G | -5.6 |
| A27C G42C G71U G120C U126A U130G | -6.82 |
| U7G G36U C80U U92G C123U | -4.24 |
| A6U C53U C73U | 0.296 |
| G113C U116G | -3.72 |
| U32C G57U G110A | -2 |
| C12A C31U | -4.6 |
| A26U G60A U130C | -2.93 |
| U14A A46U G61A A84U C85U | -4.32 |
| U9A G69C G113C C115U | -4.52 |
| A27U U133C | -2.05 |
| G39A G71C G93C C94U | -2.14 |
| C13A G39C | -2 |
| A105C U116C | -4.81 |
| A2U A27G G39C G61C C62U A84U | -7.51 |
| C101A C114G | -3.4 |
| C70G G77A | -1.74 |
| A50G C64U C88G | -0.539 |
| G47C G63U C102A U112C G113U | -7.27 |
| A27G C72A G93C G120U | -2.9 |
| C72U U78C A83C | -0.433 |

| Variant | polymerase ribozyme fitness (log ratio) |
| --- | --- |
| G10A G63A C89A | -3.25 |
| C20A C62G C115U G122U | -6.79 |
| G36U C80U C85U C98U C102A A103U A105C U106G C115G | -5.37 |
| C8G C22G U125G U131G | -6 |
| A50U G63U C89U | -3.86 |
| C20G C72G | -4.5 |
| C56G C89G G122A U129A | -4.09 |
| G57U G60U C123U | 0.317 |
| G57C U78G U112A A118U | 1.26 |
| U38A G45U G52A U131G | -3.68 |
| C49U C101G | -2.04 |
| A90U G117C A118C | -3.48 |
| C11U U21C C82G | -0.576 |
| A18G G19A A43C C56U C70U G110A | -4.41 |
| C13A G48A G69A C114U U129A | -6.99 |
| C12G C73U | -0.295 |
| C80A A91G G120U | -5.41 |
| C20U G60U U78A G113C | -2.3 |
| G44A C72U A84U | -1.47 |
| C62U U109A | -4.57 |
| G17A U78C C94U | -3.74 |
| U7C C40A | -0.659 |
| G69A U112A | -2.26 |
| A74C U92C G127A | -2.3 |

| Variant | polymerase ribozyme fitness (log ratio) |
| --- | --- |
| G63C A111C | -0.587 |
| G42A G117C A119U | -3.55 |
| C13U C22G A41U C72U U78G U81C G122A | -4.05 |
| U7G G42C G45A G61C | -3.42 |
| A41U C70U | -2.3 |
| C15U A18U C49G C72A U92C | -5.58 |
| C8U G10C C13A C49G C53A C101A U133A | -3 |
| G47C G60C U109A U112G | -7.01 |
| C8G G10C C11U C20A U33C C56G G63U C64G C72G C114G G127U | -6.79 |
| C15U G47C G48U C62G A100U C124U | -5.24 |
| A27G A83G G93A | -3 |
| C49U C73A U81G | -2.45 |
| A6C A118U | 0.712 |
| C8A G61A G63A | -6.8 |
| A2U G51U U59G A84C | -4.9 |
| C8A C12G G23U G71U C86U G120C | -5.74 |
| G35A U131C | -6.04 |
| A29U G45U | -3.1 |
| A43U C56U C79A | -3.22 |
| C12U G48A | -0.765 |
| G42U A84U C115A G127A | -4.77 |
| C72U U96A A118G | -1.7 |
| G69U U131A | -0.175 |
| C73G A118U | -0.0973 |

| Variant | polymerase ribozyme fitness (log ratio) |
| --- | --- |
| C34A A50G G93A | -3.46 |
| G10C C11A U54G A68U U109A G128U | -7.09 |
| C20G G44C C73U U78A A95C | -6.9 |
| C20U A43G G69C C88U U130A | -5.74 |
| U7G C20U C115U | -2.32 |
| A50U C62U A83U U133A | -1.52 |
| A50U C73U U87A | -0.904 |
| C12A C13U U54A C72U C89A | -1.99 |
| C4A C40U C114U | -4.58 |
| G48A U112C | 0.294 |
| G52A A84U U131G | -0.974 |
| G17A C115U U116C | -6.73 |
| G52C C56A C102U U133A | -2.78 |
| C80U G107A | -6.42 |
| G10U C13G G120C | 1.66 |
| A5G C28A U33G U55A C73U A100C C124A | -5.92 |
| C11G C28A U112A | -1.33 |
| A6U G44U G61A A103U G122A C124G U125G | -4.72 |
| U59A A74G C114G U126A G128A | -3.97 |
| A6U A91U A121C C124A | -0.453 |
| C72G C86U A111U C115A | -4.83 |
| A2U C4U G61U C101A G127C | -3.03 |
| C3U C13A G69U A121G | 1.51 |
| G47U U54C C56A C80U C124G | -1.14 |

| Variant | polymerase ribozyme fitness (log ratio) |
| --- | --- |
| G63A C73A | -1.93 |
| A6G A46C G48U G52U A95C | -5.42 |
| C12U C20A G71A U87C | -2.91 |
| A43G G60U U78C | -2.18 |
| A16U A29U G36A A43C G44U C53A G63C U112C | -5.08 |
| G45U G47U G113A | -3.45 |
| C13G C56U C85A | -3.69 |
| A2C G52A | -2.22 |
| C80U G127C | -3.21 |
| C12U C72G A103G C124A | -5.75 |
| U9A G61A A100U | 0.389 |
| G110U | -1.08 |
| G63C C85G U87C | -2.82 |
| U9A G25A | -5.66 |
| U32C G36A C64A A111G | -5.64 |
| A50G C53U U129C U130G | -0.774 |
| U9A C12U G120U G128C | 0.498 |
| C13U U112G | 1.14 |
| G45C A50C A121C | 0.0664 |
| A66U C72G | -1.63 |
| C64U A111G | 1.06 |
| A18U C62G C82A C114A U131A G135A | -4.32 |
| A27G C64A C115G | -7.5 |
